Test results published in PMC10031235 (Protein Science : A Publication of the Protein Society, 2023).

Target: the molecule itself
Test: SEC; size-exclusion chromatography of purified PSAT in solution (Figure S7); conditions not shown

B1: human phosphoserine aminotransferase (PSAT-β) (enzyme)
chain: MDAPRQVVNFGPGPAKLPHSVLLEIQKELLDYKGVGISVLEMSHRSSDFAKIINNTENLVRELLAVPDNYKVIFLQGGGCGQFSAVPLNLIGLKAGRCADYVVTGAWSAKAAEEAKKFGTINIVHPKLGSYTKIPDPSTWNLNPDASYVYYCANETVHGVEFDFIPDVKGAVLVCDMSSNFLSKPVDVSKFGVIFAGAQKNVGSAGVTVVIVRDDLLGFALRECPSVLEYKVQAGNSSLYNTPPCFSIYVMGLVLEWIKNNGGAAAMEKLSSIKSQTIYEIIDNSQGFYVCPVEPQNRSKMNIPFRIGNAKGDDALEKRFLDKALELNMLSLKGHRSVGGIRASLYNAVTIEDVQKLAAFMKKFLEMHQL
modifications: pyridoxal 5'-phosphate covalently bound to Lys200 (internal aldimine); pyridoxamine phosphate in place of PLP in some chains
notes: human phosphoserine aminotransferase, PSAT1 (PSAT-β), wild type, EC 2.6.1.52; gene coding for human PSAT-β cloned in a modified pET28b; electron density continuous from residue 6 to 370; also called PSAT1; human PSAT; source: E. coli BL21(DE3) tuner, purified (IMAC Talon; Superdex 75 before crystallization)
- stoichiometry N: 2
